Here are results for 1 molecule from article PMC8643700.

For this series, the target named is Cas9wt (SpCas9) (Streptococcus pyogenes, UniProt Q99ZW2 1-1368). As to the kind of experiment: single-molecule magnetic tweezers.
Chain of Cas9wt (SpCas9) (Q99ZW2 whole entry): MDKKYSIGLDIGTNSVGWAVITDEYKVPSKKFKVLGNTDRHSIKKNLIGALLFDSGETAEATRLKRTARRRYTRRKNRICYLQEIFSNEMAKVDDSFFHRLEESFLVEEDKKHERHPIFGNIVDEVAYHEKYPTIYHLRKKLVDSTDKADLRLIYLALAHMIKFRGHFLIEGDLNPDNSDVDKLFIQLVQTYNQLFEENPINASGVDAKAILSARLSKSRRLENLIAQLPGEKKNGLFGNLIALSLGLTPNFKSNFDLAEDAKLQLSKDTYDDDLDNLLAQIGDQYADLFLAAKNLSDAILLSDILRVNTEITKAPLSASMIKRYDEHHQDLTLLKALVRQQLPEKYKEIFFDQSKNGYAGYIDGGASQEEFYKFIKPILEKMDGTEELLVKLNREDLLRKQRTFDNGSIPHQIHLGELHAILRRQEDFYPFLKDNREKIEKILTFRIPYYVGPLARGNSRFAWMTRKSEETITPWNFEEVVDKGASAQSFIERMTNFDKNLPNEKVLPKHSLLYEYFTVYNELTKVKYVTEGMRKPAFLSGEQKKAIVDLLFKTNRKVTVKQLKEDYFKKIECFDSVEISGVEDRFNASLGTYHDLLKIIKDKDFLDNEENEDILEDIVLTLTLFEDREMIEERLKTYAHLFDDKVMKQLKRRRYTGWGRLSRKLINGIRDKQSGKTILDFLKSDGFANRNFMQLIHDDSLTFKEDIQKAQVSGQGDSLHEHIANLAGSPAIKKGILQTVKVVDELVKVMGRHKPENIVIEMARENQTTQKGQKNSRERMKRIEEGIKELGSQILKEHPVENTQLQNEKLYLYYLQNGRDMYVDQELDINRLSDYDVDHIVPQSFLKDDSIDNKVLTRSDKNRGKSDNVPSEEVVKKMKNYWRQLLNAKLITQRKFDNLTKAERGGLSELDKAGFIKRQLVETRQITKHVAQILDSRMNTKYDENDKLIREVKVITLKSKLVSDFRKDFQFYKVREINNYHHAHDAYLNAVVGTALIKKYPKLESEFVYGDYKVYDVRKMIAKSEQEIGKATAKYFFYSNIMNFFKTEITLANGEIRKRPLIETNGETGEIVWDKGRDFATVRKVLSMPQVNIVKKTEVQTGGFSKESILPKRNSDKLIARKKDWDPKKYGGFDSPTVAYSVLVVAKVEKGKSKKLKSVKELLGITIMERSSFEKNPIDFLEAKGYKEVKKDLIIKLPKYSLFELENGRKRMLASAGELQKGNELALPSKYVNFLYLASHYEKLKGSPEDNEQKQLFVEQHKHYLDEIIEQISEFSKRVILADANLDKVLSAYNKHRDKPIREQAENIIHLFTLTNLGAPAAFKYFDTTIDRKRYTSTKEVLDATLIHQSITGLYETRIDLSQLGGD

B1: sgRNA MT + 2.7 kb DNA with FM protospacer (mixed)
RNA: GAGCGAUACACAUGAGACGCGUUUUAGAGCUAGAAAUAGCAAGUUAAAAUAAGGCUAGUCCGUUAUCAACUUGAAAAAGUGGCACCGAGUCGGUGCUUUUU
As to B1, the binding result is recorded as “binds”.
